Data: patent US20210277118A1 (Daiichi Sankyo, published 2021)

Experiments:
[1] = molecular target: T1, human CD3 epsilon/delta expressed on transfected cells (hCD3epsilon-pcDNA3.1 and hCD3delta-pcDNA3.1 in … (human, UniProt P07766 23-207; P04234 22-171); assay: cell ELISA and flow cytometry on transfected cells, hybridoma supernatant
T1 construct: whole, on cells

[2] = molecular target: T2, monkey CD3 epsilon/delta expressed on transfected Lenti-X293T cells (cynoCD3epsilon-pcDNA3.1 and … (monkey, UniProt Q95LI5 22-198; Q95LI8 22-171); assay: flow cytometry on transfected Lenti-X293T cells, hybridoma supernatant
T2 construct: whole, on cells
T2 sequence (Q95LI5 22-198, stated change not applied, chain 1 of 2): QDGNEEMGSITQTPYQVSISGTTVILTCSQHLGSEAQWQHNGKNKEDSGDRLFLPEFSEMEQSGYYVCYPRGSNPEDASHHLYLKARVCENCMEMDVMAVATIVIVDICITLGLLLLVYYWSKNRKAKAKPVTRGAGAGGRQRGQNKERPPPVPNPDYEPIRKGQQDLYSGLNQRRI
T2 sequence (Q95LI8 22-171, stated change not applied, chain 2 of 2): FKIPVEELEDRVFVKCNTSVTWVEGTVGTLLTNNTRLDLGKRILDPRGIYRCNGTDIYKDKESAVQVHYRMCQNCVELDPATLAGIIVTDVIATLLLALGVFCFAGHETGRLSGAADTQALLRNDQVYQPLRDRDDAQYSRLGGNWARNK
Procedure: Flow cytometry analysis of binding activity to monkey CD3. The monkey CD3 binding specificity of the antibody produced by each hybridoma determined to produce the antibody binding to human CD3 was further confirmed by flow cytometry. Each Lenti-X293T cell suspension was added at a concentration of 100 μL/well to a 96-well U-bottomed microplate and centrifuged to remove a supernatant. The cynoCD3c-pcDNA3.1- and cynoCD3δ-pcDNA3.1-transfected Lenti-X293T cells or the pcDNA3.1-DEST-transfected Lenti-X293T cells were suspended by the addition of the hybridoma culture supernatant and left standing at 4° C. for 1 hour. The cells were washed once with PBS containing 5% FBS, then suspended by the addition of Anti-Rat IgG FITC conjugate diluted 500-fold with PBS containing 5% FBS, and left standing at 4° C. for 30 minutes. The cells were washed twice with PBS containing 5% FBS and then resuspended in PBS containing 5% FBS and 2 μg/ml 7-aminoactinomycin D, followed by detection using a flow cytometer. The data was analyzed using Flowjo. After removal of 7-aminoactinomycin D-positive dead cells by gating, the FITC fluorescence intensity of live cells was plotted to a histogram.

T1 sequence (P07766 23-207, stated change not applied, chain 1 of 2): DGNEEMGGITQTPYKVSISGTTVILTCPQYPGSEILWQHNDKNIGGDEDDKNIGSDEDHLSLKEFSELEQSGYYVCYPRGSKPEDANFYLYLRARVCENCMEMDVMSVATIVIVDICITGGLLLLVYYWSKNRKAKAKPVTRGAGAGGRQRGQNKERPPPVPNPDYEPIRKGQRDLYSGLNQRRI
T1 sequence (P04234 22-171, stated change not applied, chain 2 of 2): as the sequence (Q95LI8 22-171, stated change not applied, chain 2 of 2) above, with V5I, K15N, V20I, T32S, N33D, N34I, A64T, N74S, L83V, R141H counted along it

B1: rat anti-CD3 monoclonal antibody C3-147 (antibody, rat IgG2b, V domains shown)
VH: EVQLVESGGGLVQPGRALKLSCVVSGVTFNYYGMSWIRQAPGKGLEWVASITNSGGRIYYPDSVKGRFTISRENTQKTLYLQMNSLRSEDTATYYCTLDGRDGWVAYWGQGTLVTVSS
VL: QFVLTQPNSVSTNLGTTVELSCKRNTGNIGSNYVNWYQQHEGRSPTTIIYRDDKRPDGVSDRFSGSIDRSSKSALLTINNVQTEDEADYFCQSYSSGFIFGGGTKLTVL
notes: Rat IgG2b with lambda chains (printed 'X chains'); tested as hybridoma culture supernatant
**Q.** Does B1 bind [1]?
**A.** Result: binds

**Q.** Does B1 bind [2]?
**A.** Result: binds
